# Where a chain is given by its changes, count along the chain named. Names may count otherwise. “And” between values parts separate entries of the source, which are not always exact repeats. Equal values may be shown once. “Also recorded” adds a separate entry of the source. Non-standard residues stand in square brackets, D forms with d. Residues, ends and D or L forms follow the SMILES beside them. No end group written: not given here. fluorescein‑5‑maleimide = fluorescein-5-maleimide linked to an engineered C-terminal Cys; pT = C[C@@H](OP(=O)(O)O)[C@H](N)C(=O)O; pS = N[C@@H](COP(=O)(O)O)C(=O)O
# T1: 14-3-3-ζ (Homo sapiens, UniProt P63104)
# T1 construct: His10 (cleaved yes); made in house
# T1 sequence (P63104 1-245): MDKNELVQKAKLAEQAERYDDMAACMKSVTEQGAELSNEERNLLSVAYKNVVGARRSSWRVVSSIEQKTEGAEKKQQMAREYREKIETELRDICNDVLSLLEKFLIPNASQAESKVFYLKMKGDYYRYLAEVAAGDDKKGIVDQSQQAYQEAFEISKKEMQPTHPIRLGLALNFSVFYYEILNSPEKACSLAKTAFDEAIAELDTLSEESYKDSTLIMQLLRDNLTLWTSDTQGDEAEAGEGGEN
# T2: 14-3-3-ζ (UniProt P63104 1-245)
# T2 construct: 14-3-3 protein zeta; Expressed from the same modified pET16b vector as the integrin tails (His10, 3C site); also called 14-3-3-ζ wt; unlabeled 14-3-3-ζ; not shown: His10, N-terminal, cleaved
# T2 sequence: T1 sequence (P63104 1-245)
# B1: β2-45pT phospho-peptide (peptide)
# peptide: KALIHLSDLREYRRFEKEKLKSQWNNDNPLFKSATTTVMNPKFAES
# modifications: also: phospho-threonine at 758
# notes: integrin β2 cytoplasmic tail, residues 724-769 of UniProt P05107; T758 is phospho-threonine; also called long β2 phospho-peptide; source: synthetic peptide
# B2: β1A integrin cytoplasmic tail, wild type (domain or fragment, human (from the printed UniProt entry))
# chain: GSKLLMIIHDRREFAKFEKEKMNAKWDTGENPIYKSAVTTVVNPKYEGK
# notes: residues from the cloning tag at the N-terminus; integrin β1A cytoplasmic tail, residues 752-798 of UniProt P05556; 15N-labelled for NMR, unlabelled for ITC; also called β1A wt; not shown: His10, N-terminal, cleaved
# B3: α4 integrin cytoplasmic tail S1011D (domain or fragment, human (from the printed UniProt entry))
# chain: GPLGSKAGFFKRQYKDILQEENRRDSWSYINSKSNDD
# notes: residues from the cloning tag at the N-terminus; integrin α4 cytoplasmic tail, residues 1001-1032 of UniProt P13612, with S1011D; 15N-labelled for NMR, unlabelled for ITC; also called α4 S1011D; α4 phospho-mimetic; not shown: His10, N-terminal, cleaved
# B4: β2-11pT phospho-peptide (peptide)
# peptide: PLFKSATTTVM
# modifications: also: phospho-threonine at 758
# notes: integrin β2 cytoplasmic tail, residues 752-762 of UniProt P05107; T758 is phospho-threonine; also called short β2 phospho-peptide; source: synthetic peptide
# B5: α4-30pS phospho-peptide (peptide)
# peptide: GFFKRQYK[pS]ILQEENRRDSWSYINSKSNDD
# notes: integrin α4 cytoplasmic tail, residues 1003-1032 of UniProt P13612; S1011 is phospho-serine; also called phosphorylated α4-derived peptide; source: synthetic peptide, bought: GL Biochem Ltd. (Shanghai)
# B6: α4 integrin cytoplasmic tail, wild type (domain or fragment, human (from the printed UniProt entry))
# chain: B3 chain with D16S
# notes: residues from the cloning tag at the N-terminus; integrin α4 cytoplasmic tail, residues 1001-1032 of UniProt P13612; 15N-labelled for NMR, unlabelled for ITC; also called α4 wt; full-length α4 integrin tail; not shown: His10, N-terminal, cleaved
# B7: α4-11pS phospho-peptide (peptide)
# peptide: FKRQYK[pS]ILQE
# notes: integrin α4 cytoplasmic tail, residues 1005-1015 of UniProt P13612; S1011 is phospho-serine; also called short phosphorylated α4 integrin peptide; source: synthetic peptide, bought: GL Biochem Ltd. (Shanghai)
# Legend:
# 14-3-3-ζ [1] = target: T1, 14-3-3-ζ; test: ITC of integrin tail fragments with 14-3-3-ζ; format: binding; settings: 298 K; for binding to 14-3-3-ζ by ITC, in words: pH 6.5, fragment in cell, 14-3-3-ζ in syringe; for Kd: 20 mM sodium phosphate, 50 mM NaCl pH 6.5, integrin fragment in cell (80–200 μM), 14-3-3-ζ in syringe (0.75–2 mM), one-site model, repeated twice
# Description: Phosphorylated α4 synthetic peptides were purchased from GL Biochem Ltd. (Shanghai). All recombinant proteins and synthetic peptides were prepared in 20 mM sodium phosphate and 50 mM NaCl (pH 6.5), and concentrations were determined by UV absorbance at 280 nm. ITC experiments using a VP-ITC200 instrument (MicroCal) were performed at 298 K as follows: the cell (volume, ~ 200 μl) contained the different integrin tail fragments, and the syringe (volume, ~ 40 μl) contained 14-3-3-ζ. A first injection of 2 μl was followed by 15 injections of 2.5 μl, with a stirring speed of 1500 rpm and a delay between injections of 180 s. A blank titration was performed by injecting 14-3-3-ζ into buffer to take the heat of dilution into account. Experiments were repeated twice for each sample. Raw data were processed and fitted with MicroCal Origin software using a one-site model where the error function is calculated as the sum of the squared deviations between the data and the model curve.
# 14-3-3-ζ [2] = target: T1, 14-3-3-ζ; test: 15N-1H HSQC NMR titration of 15N-labeled integrin tails with unlabeled 14-3-3-ζ; format: binding; settings: 15N-labeled tail 0.1 mM, equimolar unlabeled 14-3-3-ζ; NMR buffer pH 6.5, 25 °C
# Description: Samples were prepared in NMR buffer (pH 6.5) with 5% D2O, and experiments were performed at 25 °C. Titration experiments were collected on a 500-MHz spectrometer using a water flip-back-embedded gradient enhanced ^15N–^1H HSQC pulse sequence.[46] For the assignment of the α4 and β2 backbone resonances, ^15N–^13C integrin tails of 0.6 mM concentration were used to measure CBCA(CO)NH and CBCANH experiments on a Bruker 500-MHz instrument equipped with a cryogenic probe head. Data were processed using NMRPipe[47] and analyzed with the programs CARA/XEASY[48] or CCPN Analysis.[49]
# 14-3-3-ζ [3] = target: T1, 14-3-3-ζ; test: Fluorescence polarization titration of fluorescein-labeled integrin tails with 14-3-3-ζ; format: binding; settings: fluorescein-labeled tail, 1 μM; ex 485 nm, em 520 nm
# Description: Fig. 6 Fluorescence polarization and ITC of interactions between integrin tails and 14-3-3-ζ. (a) Fluorescence polarization titrations of fluorescein-labeled β1A, β3 and α4 with 14-3-3-ζ. […] (b–d) ITC sensorgram of an in-cell 200 μM β1A, β2 (same as in Fig. 5a) or β3 samples injected with 2 mM 14-3-3-ζ.
# For fluorescence polarization experiments, integrin tails were labeled with fluorescein-5-maleimide (Invitrogen) linked to an engineered C-terminal Cys residue. Measurements were performed using 96-well microplates (Corning) in a PHERAstar FS microplate reader (BMG Labtech). Fluorescein-labeled integrin tails at 1 μM concentration were excited at 485 nm, and polarization was recorded at 520 nm.
# 14-3-3-ζ [4] = target: T2, 14-3-3-ζ; test: fluorescence polarisation; fluorescein-labeled integrin tails at 1 μM titrated with increasing amounts of 14-3-3-ζ; 96-well plates; excitation 485 nm, emission 520 nm; single-site model; settings: both partners purified
# 14-3-3-ζ [5] = target: T2, 14-3-3-ζ; test: ITC; integrin tail fragment in the cell (80-200 μM), 14-3-3-ζ in the syringe (0.75-2 mM); 298 K; 20 mM sodium phosphate, 50 mM NaCl, pH 6.5; one-site model; settings: both partners purified
# 14-3-3-ζ [6] = target: T2, 14-3-3-ζ; test: NMR titration; 15N-1H HSQC of 15N-labeled integrin tail (0.1 mM) before and after addition of unlabeled 14-3-3-ζ (wt or variant; equimolar, 0.1 mM); 20 mM sodium phosphate, 50 mM NaCl, pH 6.5, 5% D2O, 25 °C; read-out: loss of resonance intensity (I/Io); settings: both partners purified
molecule,measurement,setting,value
"GSKALIHLSDLREYRRFEKEKLKSQWNNDNPLFKSATTTVMNPKFAES [β2 wt, recombinant unphosphorylated β2 integrin tail, residues 724–769]","binding to 14-3-3-ζ by ITC, in words",14-3-3-ζ [1],"only a weak interaction; also recorded: the interaction is weak, in the millimolar range"
same,"binding to 14-3-3-ζ by ITC, in words",14-3-3-ζ [1]; listed as β2,Only β1A gave a binding curve that could be fitted
same,"change of integrin tail resonances on addition of 14-3-3-ζ, in words",14-3-3-ζ [2],selective broadening of β2 resonances
"YKSAVpTTVVNP [β1-11pT, synthetic β1 phospho-threonine peptide, residues 783–793]","binding to 14-3-3-ζ by ITC, in words",14-3-3-ζ [1],no binding
"GS KLLITIHDRKEFAKFEEERARAKWDTANNPLYKEATSTFTNITYRGT [β3 wt, recombinant β3 integrin tail, residues 742–788]","binding to 14-3-3-ζ by fluorescence polarization, in words",14-3-3-ζ [3],No binding was detected
same,"binding to 14-3-3-ζ by ITC, in words",14-3-3-ζ [1],Only β1A gave a binding curve that could be fitted
same,"change of integrin tail resonances on addition of 14-3-3-ζ, in words",14-3-3-ζ [2],intensity reduction for several resonances
paxillin: construct of the N-terminal region of paxillin (residues 1–323) that included all LD motifs,"binding to 14-3-3-ζ by ITC, in words",14-3-3-ζ [1],no pairwise interaction was detected by ITC
CC[C@H](C)[C@H](NC(=O)[C@H](Cc1ccc(O)cc1)NC(=O)[C@H](CO)NC(=O)[C@H](Cc1c[nH]c2ccccc12)NC(=O)[C@H](CO)NC(=O)[C@H](CC(=O)O)NC(=O)[C@H](CCCNC(=N)N)NC(=O)[C@H](CCCNC(=N)N)NC(=O)[C@H](CC(N)=O)NC(=O)[C@H](CCC(=O)O)NC(=O)[C@H](CCC(=O)O)NC(=O)[C@H](CCC(N)=O)NC(=O)[C@H](CC(C)C)NC(=O)[C@@H](NC(=O)[C@H](COP(=O)(O)O)NC(=O)[C@H](CCCCN)NC(=O)[C@H](Cc1ccc(O)cc1)NC(=O)[C@H](CCC(N)=O)NC(=O)[C@H](CCCNC(=N)N)NC(=O)[C@H](CCCCN)NC(=O)[C@H](Cc1ccccc1)NC(=O)[C@H](Cc1ccccc1)NC(=O)CN)[C@@H](C)CC)C(=O)N[C@@H](CC(N)=O)C(=O)N[C@@H](CO)C(=O)N[C@@H](CCCCN)C(=O)N[C@@H](CO)C(=O)N[C@@H](CC(N)=O)C(=O)N[C@@H](CC(=O)O)C(=O)N[C@@H](CC(=O)O)C(=O)O [α4-30pS] (H-GFFKRQYK[pS]ILQEENRRDSWSYINSKSNDD-OH),Kd,14-3-3-ζ [1],23.6 ± 2.1 µM
"GS KLLMIIHDRREFAKFEKEKMNAKWDTQENPIYKSPINNFKNPNYGRKAGL (GSKLLMIIHDRREFAKFEKEKMNAKWDTQENPIYKSPINNFKNPNYGRKAGL; left off: His10, N-terminal, cleaved) [β1D wt, recombinant β1D integrin tail, residues 752–801]","change of integrin tail resonances on addition of 14-3-3-ζ, in words",14-3-3-ζ [2],interacts with 14-3-3-ζ in a very similar way to β1A
KALIHLSDLREYRRFEKEKLKSQWNNDNPLFKSA[pT]TTVMNPKFAES [β2-45pT],Kd,14-3-3-ζ [1],7.9 ± 3.1 µM
CC[C@H](C)[C@H](NC(=O)[C@H](COP(=O)(O)O)NC(=O)[C@H](CCCCN)NC(=O)[C@H](Cc1ccc(O)cc1)NC(=O)[C@H](CCC(N)=O)NC(=O)[C@H](CCCNC(=N)N)NC(=O)[C@H](CCCCN)NC(=O)[C@@H](N)Cc1ccccc1)C(=O)N[C@@H](CC(C)C)C(=O)N[C@@H](CCC(N)=O)C(=O)N[C@@H](CCC(=O)O)C(=O)O [α4-11pS] (H-FKRQYK[pS]ILQE-OH),Kd,14-3-3-ζ [1],> 300 µM and 315 µM
"paxillin residues 111–128: phosphorylated peptide containing a putative 14-3-3 binding motif, corresponding to paxillin residues 111–128 (VGEEEHVYSFPNKQKSAE; also: phosphorylated; UniProt P49023 111-128, looked up, fragment)","binding to 14-3-3-ζ by ITC, in words",14-3-3-ζ [1],no interaction was detected by ITC
"GS RLSVEIYDRREYSRFEKEQQQLNWKQDSNPLYKSAITTTINPRFQEADSPTL (GSRLSVEIYDRREYSRFEKEQQQLNWKQDSNPLYKSAITTTINPRFQEADSPTL; left off: His10, N-terminal, cleaved) [β7 wt, recombinant β7 integrin tail, residues 747–798]","change of integrin tail resonances on addition of 14-3-3-ζ, in words",14-3-3-ζ [2],intensity reduction for several resonances
"GPLGSKAGFFKRQYKDILQEENRRDSWSYINSKSNDD [α4 S1011D, recombinant α4 integrin tail phospho-mimetic, S1011D]","change of integrin tail resonances on addition of 14-3-3-ζ, in words",14-3-3-ζ [2],significant decrease in α4 amide resonance intensities
GSKLLMIIHDRREFAKFEKEKMNAKWDTGENPIYKSAVTTVVNPKYEGKC(fluorescein‑5‑maleimide) (domain or fragment) [fluorescein-labeled β1A integrin tail],Kd,14-3-3-ζ [4],95 ± 16 µM
B1,Kd,14-3-3-ζ [5],8 µM
B2,Kd,14-3-3-ζ [5],280 ± 40 µM
B3,Kd,14-3-3-ζ [5],~60 µM
B4,Kd,14-3-3-ζ [5],4 µM
B5,Kd,14-3-3-ζ [5],~24 µM
B6,binding result,14-3-3-ζ [6],binds
B7,Kd,14-3-3-ζ [5],> 300 µM

# Reference: PMC4068353, “Characterization of 14-3-3-ζ Interactions with Integrin Tails” (Journal of Molecular Biology, 2013)
